Measured values as given in publication PMC10567574, “piRNA processing by a trimeric Schlafen-domain nuclease” (Nature, 2023).

B2: TOFU-6 eTUDOR domain (residues 119-314) (domain or fragment, C. elegans, UniProt Q09293 119-314, looked up)
chain: VLLSSSWLPLNKDIEVEVVDYLPSSSVAPDLFALTLLRINDSSMKEKYDSMHEKMNAYAQIVPFDSELEIGYDGVFRDAPRSVRRVRRISATKLYLVDFGKIINYEKAKCFQLPKVFQSMPTRVSLCGLDGLTWSPVAIPSFDNIREVVKKWGQMENSTLHAMACGFQGSINMINLFCGKSILADRLQRKGVCEYL
notes: TOFU-6, C. elegans, eTUDOR domain, residues 119-314; also called extended TUDOR domain of TOFU-6

Tests used:
Conditions in all cases: both partners purified
MBP-TOFU-6^eTUDOR domain = molecular target: T1, MBP-TOFU-6^eTUDOR domain (C. elegans, UniProt Q09293 119-314); test: pull-down; purified MBP-TOFU-6^eTUDOR constructs as bait (MBP pull-down) and GST-tagged TOFU-1 constructs as bait (GST pull-down); 20 mM Tris/HCl pH 7.5, 150 mM NaCl, 10% glycerol, 0.05% NP40, 1 mM DTT; SDS-PAGE with Coomassie staining
T1 construct: TOFU-6, C. elegans, eTUDOR domain (residues 119-314 as stated for TOFU-6^eTUDOR); source: purified recombinant
T1 sequence (looked up): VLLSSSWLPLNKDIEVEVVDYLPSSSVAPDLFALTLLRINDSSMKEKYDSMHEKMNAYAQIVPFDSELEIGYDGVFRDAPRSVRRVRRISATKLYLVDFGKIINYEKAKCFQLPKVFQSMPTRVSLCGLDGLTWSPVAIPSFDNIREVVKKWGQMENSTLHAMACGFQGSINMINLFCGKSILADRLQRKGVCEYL

MBP-tagged TOFU-1^82-373 = molecular target: T2, MBP-tagged TOFU-1^82-373 (C. elegans, UniProt O17608 82-373); test: pull-down; purified MBP-tagged TOFU-1 as bait on amylose beads, incubated with excess prey; 20 mM Tris/HCl pH 7.5, 150 mM NaCl, 10% glycerol, 0.05% NP40, 1 mM DTT; SDS-PAGE with Coomassie staining
T2 construct: TOFU-1 (SLFL-1), C. elegans, residues 82-373; source: E. coli BL21(DE3) derivative, purified; not shown: MBP, N-terminal, kept
T2 sequence (looked up): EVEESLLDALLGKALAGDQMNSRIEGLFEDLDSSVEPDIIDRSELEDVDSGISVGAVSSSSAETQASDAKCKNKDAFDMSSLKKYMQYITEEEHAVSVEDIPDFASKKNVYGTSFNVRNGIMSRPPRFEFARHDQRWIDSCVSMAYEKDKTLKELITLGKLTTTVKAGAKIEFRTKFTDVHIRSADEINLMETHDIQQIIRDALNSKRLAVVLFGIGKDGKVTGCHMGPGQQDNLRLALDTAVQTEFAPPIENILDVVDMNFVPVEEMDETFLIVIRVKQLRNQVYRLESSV

[1] = molecular target: B2; test: SEC; purified proteins alone or mixed at 20-40 uM, 1 h on ice; Superdex 200 Increase 3.2/300 in 20 mM Tris/HCl pH 7.5, 150 mM NaCl, 2 mM DTT; elution volumes compared, peak fractions on SDS-PAGE
TOFU-6^eTUDOR V266E = molecular target: T3, TOFU-6^eTUDOR V266E (C. elegans, UniProt Q09293 119-314, V266E); test: as above
T3 construct: TOFU-6, C. elegans, eTUDOR domain (residues 119-314 as stated for TOFU-6^eTUDOR) with V266E; source: purified recombinant
T3 sequence (looked up): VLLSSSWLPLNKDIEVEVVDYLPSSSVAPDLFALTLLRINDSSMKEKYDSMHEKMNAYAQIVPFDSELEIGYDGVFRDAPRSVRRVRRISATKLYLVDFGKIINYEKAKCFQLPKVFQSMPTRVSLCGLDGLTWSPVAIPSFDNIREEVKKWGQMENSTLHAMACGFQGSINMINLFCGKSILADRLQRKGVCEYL

[2] = molecular target: B2; test: ITC; TOFU-6^eTUDOR (injectant, 400-450 uM) titrated into TOFU-1^W-82-113 (cell, 45-48 uM); 25 C; 20 mM Tris, 250 mM NaCl, 0.5 mM TCEP, pH 7.50; mean of three experiments

B1: GST-tagged TOFU-1^82-113 (peptide, UniProt O17608 82-113, looked up)
chain: EVEESLLDALLGKALAGDQMNSRIEGLFEDLD
notes: also called TOFU-1^pep; source: purified recombinant; not shown: GST, N-terminal, kept
B1: binds (MBP-TOFU-6^eTUDOR domain).

B2: binds (MBP-tagged TOFU-1^82-373).

B3: TOFU-1^82-172 (domain or fragment, C. elegans, UniProt O17608 82-172, looked up)
chain: EVEESLLDALLGKALAGDQMNSRIEGLFEDLDSSVEPDIIDRSELEDVDSGISVGAVSSSSAETQASDAKCKNKDAFDMSSLKKYMQYITE
notes: also called TOFU-1^N; source: E. coli BL21(DE3) derivative, purified
B3: binds [1]; binds (TOFU-6^eTUDOR V266E).

B4: TOFU-1^82-172 L88R/L92R (domain or fragment, C. elegans, UniProt O17608 82-172, looked up)
chain: EVEESLRDALRGKALAGDQMNSRIEGLFEDLDSSVEPDIIDRSELEDVDSGISVGAVSSSSAETQASDAKCKNKDAFDMSSLKKYMQYITE
notes: source: purified recombinant
B4: binds [1].

B5: TOFU-1^pep (residues 82-113) (peptide, UniProt O17608 82-113, looked up)
chain: EVEESLLDALLGKALAGDQMNSRIEGLFEDLD
notes: also called first helix of the N-terminal part of TOFU-1; source: E. coli BL21(DE3) derivative, purified
B5: binds [1].

B6: TOFU-1^W-82-113 (peptide)
chain: WEVEESLLDALLGKALAGDQMNSRIEGLFEDLD
notes: tryptophan residue added at the N terminus so that the concentration can be determined; Used for ITC and crystallization; also called TOFU-1^pep; TOFU-1 peptide; source: purified (engineered TOFU-1 peptide)
B6 showed a Kd [2] of ~20 µM.
